Data reported in article PMC6797804, “Histone H3K23-specific acetylation by MORF is coupled to H3K14 acylation” (Nature Communications, 2019).

System: promoters of target genes in 293T cells
Assay: ChIP in transfected 293T cells (FLAG-MORFN WT or F287A)
Assay type: cell-based
Procedure: Chromatin preparation from MEF, U2OS (ATCC HTB-96) and 293T cells were done as previously described. […] Next, 50 μl of Protein G Dynabeads for FLAG ChIP or 25 μl of Protein A Dynabeads was added to each sample and incubated for 4 h at 4 °C. The beads were washed extensively and eluted with 1% SDS and 0.1 M NaHCO3. Cross-linked samples were reversed by heating overnight at 65 °C in the presence of 0.2 M NaCl. Samples were then treated with RNase A and proteinase K for 2 h, and DNA was recovered by phenol-chloroform and ethanol precipitation. Quantitative real-time PCR corrected for primer efficiencies in the linear range were performed using SYBR Green I (Roche) on a LightCycler 480 (Roche).

[1] = corrected for total H3, two independent experiments

Molecule | association with promoters (FLAG ChIP) (compared to WT FLAG-MORF, two independent experiments) | H3K14ac level on promoters (ChIP) [1] | H3K23ac level on promoters (ChIP) [1]
FLAG-MORF F287A: FLAG-tagged MORFN F287A mutant defective in histone H3 binding, expressed in 293T cells (protein, UniProt Q8WYB5 1-716, looked up, variant F287A, residues 1-716 FLAG tag) MVKLANPLYTEWILEAIQKIKKQKQRPSEERICHAVSTSHGLDKKTVSEQLELSVQDGSVLKVTNKGLASYKDPDNPGRFSSVKPGTFPKSAKGSRGSCNDLRNVDWNKLLRRAIEGLEEPNGSSLKNIEKYLRSQSDLTSTTNNPAFQQRLRLGAKRAVNNGRLLKDGPQYRVNYGSLDGKGAPQYPSAFPSSLPPVSLLPHEKDQPRADPIPICSFCLGTKESNREKKPEELLSCADCGSSGHPSCLKFCPELTTNVKALRWQCIECKTCSACRVQGRNADNMLACDSCDRGFHMECCDPPLSRMPKGMWICQVCRPKKKGRKLLHEKAAQIKRRYAKPIGRPKNKLKQRLLSVTSDEGSMNAFTGRGSPGRGQKTKVCTTPSSGHAASGKDSSSRLAVTDPTRPGATTKITTTSTYISASTLKVNKKTKGLIDGLTKFFTPSPDGRRSRGEIIDFSKHYRPRKKVSQKQSCTSHVLATGTTQKLKPPPSSLPPPTPISGQSPSSQKSSTATSSPSPQSSSSQCSVPSLSSLTTNSQLKALFDGLSHIYTTQGQSRKKGHPSYAPPKRMRRKTELSSTAKSKAHFFGKRDIRSRFISHSSSSSWGMARGSIFKAIAHFKRTTFLKKHRMLGRLKYKVTPQMGTPSPGKGSLTDGRIKPDQDDDTEIKINIKQESADVNVIGNKDVVTEEDLDVFKQAQELSWEKIECESGVEDC | decreased association | H3K14ac level was unaffected by the mutation | expression of WT FLAG-MORF but not F287A mutant increases H3K23ac level
WT FLAG-MORF: FLAG-tagged wild-type MORFN (residues 1–716 of MORF) expressed in 293T cells (protein, UniProt Q8WYB5 1-716, looked up, fragment, FLAG tag, FLAG-tagged wild-type MORFN (residues 1–716 of MORF) expressed in 293T cells) MVKLANPLYTEWILEAIQKIKKQKQRPSEERICHAVSTSHGLDKKTVSEQLELSVQDGSVLKVTNKGLASYKDPDNPGRFSSVKPGTFPKSAKGSRGSCNDLRNVDWNKLLRRAIEGLEEPNGSSLKNIEKYLRSQSDLTSTTNNPAFQQRLRLGAKRAVNNGRLLKDGPQYRVNYGSLDGKGAPQYPSAFPSSLPPVSLLPHEKDQPRADPIPICSFCLGTKESNREKKPEELLSCADCGSSGHPSCLKFCPELTTNVKALRWQCIECKTCSACRVQGRNADNMLFCDSCDRGFHMECCDPPLSRMPKGMWICQVCRPKKKGRKLLHEKAAQIKRRYAKPIGRPKNKLKQRLLSVTSDEGSMNAFTGRGSPGRGQKTKVCTTPSSGHAASGKDSSSRLAVTDPTRPGATTKITTTSTYISASTLKVNKKTKGLIDGLTKFFTPSPDGRRSRGEIIDFSKHYRPRKKVSQKQSCTSHVLATGTTQKLKPPPSSLPPPTPISGQSPSSQKSSTATSSPSPQSSSSQCSVPSLSSLTTNSQLKALFDGLSHIYTTQGQSRKKGHPSYAPPKRMRRKTELSSTAKSKAHFFGKRDIRSRFISHSSSSSWGMARGSIFKAIAHFKRTTFLKKHRMLGRLKYKVTPQMGTPSPGKGSLTDGRIKPDQDDDTEIKINIKQESADVNVIGNKDVVTEEDLDVFKQAQELSWEKIECESGVEDC |  |  | increases H3K23ac level on these promoters
